Assays:
Assay in all cases: SEC; analytical SEC of the purified protein alone; oligomeric state in solution
LnmF = molecular target: LnmF
[1] = molecular target: WsmD (Streptomyces sp. CB02120-2)
[2] = molecular target: WsmE (Streptomyces sp. CB02120-2)
[3] = molecular target: WsmR KS6 (Streptomyces sp. CB02120-2)
[4] = molecular target: WsmS (Streptomyces sp. CB02120-2)

## LnmF (enzyme)
LnmF
  stoichiometry N: 3

## WsmD (enzyme)
[1]
  stoichiometry N: 2

## WsmE (enzyme)
[2]
  stoichiometry N: 3

## WsmR KS6 (domain or fragment)
[3]
  stoichiometry N: 2

## WsmS (enzyme)
[4]
  stoichiometry N: 2

— PMC7618002
